Positions of bridges follow the written chain, without caps; N, C: chain ends. Non-standard residues stand in square brackets, D forms with d. No end group written: not given here. *: point of attachment. Isobutyryl(2-imidazol-4-yl) = CC(C)(C(=O)*)c1c[nH]cn1; PEG = not defined here; Aib = CC(C)(N)C(=O)O
B1: Chimera AIB2, Cys29 (SEQ ID NO: 487), parent w/PEG (peptide)
peptide: H[Aib]QGTFTSDYSKYLDEQAAKEFIAWLMNC(PEG)-NH2
modifications: reading uncertain
B2: Chimera AIB2, Gly29,30 Cys40 Cex (SEQ ID NO: 488), parent w/PEG (peptide)
peptide: H[Aib]QGTFTSDYSKYLDEQAAKEFIAWLMNGGPSSGAPPPSC(PEG)-NH2
modifications: reading uncertain
B3: Chimera AIB2, Gly29,30 Cys24 Cex Lactam (SEQ ID NO: 491), parent w/o PEG (peptide)
peptide: H[Aib]QGTFTSDYSKYLDEQAAKEFICWLMNGGPSSGAPPPS-NH2
modifications: lactam 16-20; N-terminus assumed
SMILES: CC[C@H](C)[C@H](NC(=O)[C@H](Cc1ccccc1)NC(=O)[C@H](CCC(=O)O)NC(=O)[C@@H]1CCCCNC(=O)CC[C@H](NC(=O)[C@H](CC(=O)O)NC(=O)[C@H](CC(C)C)NC(=O)[C@H](Cc2ccc(O)cc2)NC(=O)[C@H](CCCCN)NC(=O)[C@H](CO)NC(=O)[C@H](Cc2ccc(O)cc2)NC(=O)[C@H](CC(=O)O)NC(=O)[C@H](CO)NC(=O)[C@@H](NC(=O)[C@H](Cc2ccccc2)NC(=O)[C@@H](NC(=O)CNC(=O)[C@H](CCC(N)=O)NC(=O)C(C)(C)NC(=O)[C@@H](N)Cc2c[nH]cn2)[C@@H](C)O)[C@@H](C)O)C(=O)N[C@@H](CCC(N)=O)C(=O)N[C@@H](C)C(=O)N[C@@H](C)C(=O)N1)C(=O)N[C@@H](CS)C(=O)N[C@@H](Cc1c[nH]c2ccccc12)C(=O)N[C@@H](CC(C)C)C(=O)N[C@@H](CCSC)C(=O)N[C@@H](CC(N)=O)C(=O)NCC(=O)NCC(=O)N1CCC[C@H]1C(=O)N[C@@H](CO)C(=O)N[C@@H](CO)C(=O)NCC(=O)N[C@@H](C)C(=O)N1CCC[C@H]1C(=O)N1CCC[C@H]1C(=O)N1CCC[C@H]1C(=O)N[C@@H](CO)C(N)=O
B4: E16, K20AIB2, A18 Gly29,30 Cys24 Cex (SEQ ID NO: 496), parent w/PEG (peptide)
peptide: H[Aib]QGTFTSDYSKYLDERAAKDFVC(PEG)WLMNGGPSSGAPPPS-NH2
modifications: not fully specified; reading uncertain
B5: Chimera DMIA1, Cys24 Lactam (SEQ ID NO: 505), parent w/o PEG (peptide)
peptide: [Isobutyryl(2-imidazol-4-yl)]SQGTFTSDYSKYLDEQAAKEFICWLMNT-NH2
modifications: lactam 16-20
SMILES: CC[C@H](C)[C@H](NC(=O)[C@H](Cc1ccccc1)NC(=O)[C@H](CCC(=O)O)NC(=O)[C@@H]1CCCCNC(=O)CC[C@H](NC(=O)[C@H](CC(=O)O)NC(=O)[C@H](CC(C)C)NC(=O)[C@H](Cc2ccc(O)cc2)NC(=O)[C@H](CCCCN)NC(=O)[C@H](CO)NC(=O)[C@H](Cc2ccc(O)cc2)NC(=O)[C@H](CC(=O)O)NC(=O)[C@H](CO)NC(=O)[C@@H](NC(=O)[C@H](Cc2ccccc2)NC(=O)[C@@H](NC(=O)CNC(=O)[C@H](CCC(N)=O)NC(=O)[C@H](CO)NC(=O)C(C)(C)c2c[nH]cn2)[C@@H](C)O)[C@@H](C)O)C(=O)N[C@@H](CCC(N)=O)C(=O)N[C@@H](C)C(=O)N[C@@H](C)C(=O)N1)C(=O)N[C@@H](CS)C(=O)N[C@@H](Cc1c[nH]c2ccccc12)C(=O)N[C@@H](CC(C)C)C(=O)N[C@@H](CCSC)C(=O)N[C@@H](CC(N)=O)C(=O)N[C@H](C(N)=O)[C@@H](C)O
B6: Chimera DMIA1, Cys24 Lactam (SEQ ID NO: 505), parent w/PEG (peptide)
peptide: [Isobutyryl(2-imidazol-4-yl)]SQGTFTSDYSKYLDEQAAKEFIC(PEG)WLMNT-NH2
modifications: lactam 16-20; reading uncertain
B7: Chimera AIB2, Gly29,30 Cys40 Cex Lactam (SEQ ID NO: 489), parent w/PEG (peptide)
peptide: H[Aib]QGTFTSDYSKYLDEQAAKEFIAWLMNGGPSSGAPPPSC(PEG)-NH2
modifications: lactam 16-20; reading uncertain
B8: E16, K20AIB2, A18 Cys24 (SEQ ID NO: 492), parent w/PEG (peptide)
peptide: H[Aib]QGTFTSDYSKYLDERAAKDFVC(PEG)WLMNT-NH2
modifications: reading uncertain
B9: Chimera AIB2, Cys29 (SEQ ID NO: 487), parent w/o PEG (peptide)
peptide: H[Aib]QGTFTSDYSKYLDEQAAKEFIAWLMNC-NH2
modifications: N-terminus assumed
SMILES: CC[C@H](C)[C@H](NC(=O)[C@H](Cc1ccccc1)NC(=O)[C@H](CCC(=O)O)NC(=O)[C@H](CCCCN)NC(=O)[C@H](C)NC(=O)[C@H](C)NC(=O)[C@H](CCC(N)=O)NC(=O)[C@H](CCC(=O)O)NC(=O)[C@H](CC(=O)O)NC(=O)[C@H](CC(C)C)NC(=O)[C@H](Cc1ccc(O)cc1)NC(=O)[C@H](CCCCN)NC(=O)[C@H](CO)NC(=O)[C@H](Cc1ccc(O)cc1)NC(=O)[C@H](CC(=O)O)NC(=O)[C@H](CO)NC(=O)[C@@H](NC(=O)[C@H](Cc1ccccc1)NC(=O)[C@@H](NC(=O)CNC(=O)[C@H](CCC(N)=O)NC(=O)C(C)(C)NC(=O)[C@@H](N)Cc1c[nH]cn1)[C@@H](C)O)[C@@H](C)O)C(=O)N[C@@H](C)C(=O)N[C@@H](Cc1c[nH]c2ccccc12)C(=O)N[C@@H](CC(C)C)C(=O)N[C@@H](CCSC)C(=O)N[C@@H](CC(N)=O)C(=O)N[C@@H](CS)C(N)=O
B10: Chimera AIB2, Gly29,30 Cys24 Cex (SEQ ID NO: 490), parent w/PEG (peptide)
peptide: H[Aib]QGTFTSDYSKYLDEQAAKEFIC(PEG)WLMNGGPSSGAPPPS-NH2
modifications: reading uncertain
B11: Chimera AIB2, Gly29,30 Cys40 Cex Lactam (SEQ ID NO: 489), parent w/o PEG (peptide)
peptide: H[Aib]QGTFTSDYSKYLDEQAAKEFIAWLMNGGPSSGAPPPSC-NH2
modifications: lactam 16-20; N-terminus assumed
SMILES: CC[C@H](C)[C@H](NC(=O)[C@H](Cc1ccccc1)NC(=O)[C@H](CCC(=O)O)NC(=O)[C@@H]1CCCCNC(=O)CC[C@H](NC(=O)[C@H](CC(=O)O)NC(=O)[C@H](CC(C)C)NC(=O)[C@H](Cc2ccc(O)cc2)NC(=O)[C@H](CCCCN)NC(=O)[C@H](CO)NC(=O)[C@H](Cc2ccc(O)cc2)NC(=O)[C@H](CC(=O)O)NC(=O)[C@H](CO)NC(=O)[C@@H](NC(=O)[C@H](Cc2ccccc2)NC(=O)[C@@H](NC(=O)CNC(=O)[C@H](CCC(N)=O)NC(=O)C(C)(C)NC(=O)[C@@H](N)Cc2c[nH]cn2)[C@@H](C)O)[C@@H](C)O)C(=O)N[C@@H](CCC(N)=O)C(=O)N[C@@H](C)C(=O)N[C@@H](C)C(=O)N1)C(=O)N[C@@H](C)C(=O)N[C@@H](Cc1c[nH]c2ccccc12)C(=O)N[C@@H](CC(C)C)C(=O)N[C@@H](CCSC)C(=O)N[C@@H](CC(N)=O)C(=O)NCC(=O)NCC(=O)N1CCC[C@H]1C(=O)N[C@@H](CO)C(=O)N[C@@H](CO)C(=O)NCC(=O)N[C@@H](C)C(=O)N1CCC[C@H]1C(=O)N1CCC[C@H]1C(=O)N1CCC[C@H]1C(=O)N[C@@H](CO)C(=O)N[C@@H](CS)C(N)=O
B12: Chimera AIB2, Gly29,30 Cys40 Cex (SEQ ID NO: 488), parent w/o PEG (peptide)
peptide: H[Aib]QGTFTSDYSKYLDEQAAKEFIAWLMNGGPSSGAPPPSC-NH2
modifications: N-terminus assumed
SMILES: CC[C@H](C)[C@H](NC(=O)[C@H](Cc1ccccc1)NC(=O)[C@H](CCC(=O)O)NC(=O)[C@H](CCCCN)NC(=O)[C@H](C)NC(=O)[C@H](C)NC(=O)[C@H](CCC(N)=O)NC(=O)[C@H](CCC(=O)O)NC(=O)[C@H](CC(=O)O)NC(=O)[C@H](CC(C)C)NC(=O)[C@H](Cc1ccc(O)cc1)NC(=O)[C@H](CCCCN)NC(=O)[C@H](CO)NC(=O)[C@H](Cc1ccc(O)cc1)NC(=O)[C@H](CC(=O)O)NC(=O)[C@H](CO)NC(=O)[C@@H](NC(=O)[C@H](Cc1ccccc1)NC(=O)[C@@H](NC(=O)CNC(=O)[C@H](CCC(N)=O)NC(=O)C(C)(C)NC(=O)[C@@H](N)Cc1c[nH]cn1)[C@@H](C)O)[C@@H](C)O)C(=O)N[C@@H](C)C(=O)N[C@@H](Cc1c[nH]c2ccccc12)C(=O)N[C@@H](CC(C)C)C(=O)N[C@@H](CCSC)C(=O)N[C@@H](CC(N)=O)C(=O)NCC(=O)NCC(=O)N1CCC[C@H]1C(=O)N[C@@H](CO)C(=O)N[C@@H](CO)C(=O)NCC(=O)N[C@@H](C)C(=O)N1CCC[C@H]1C(=O)N1CCC[C@H]1C(=O)N1CCC[C@H]1C(=O)N[C@@H](CO)C(=O)N[C@@H](CS)C(N)=O
B13: Chimera AIB2, Gly29,30 Cys24 Cex (SEQ ID NO: 490), parent w/o PEG (peptide)
peptide: H[Aib]QGTFTSDYSKYLDEQAAKEFICWLMNGGPSSGAPPPS-NH2
modifications: N-terminus assumed
SMILES: CC[C@H](C)[C@H](NC(=O)[C@H](Cc1ccccc1)NC(=O)[C@H](CCC(=O)O)NC(=O)[C@H](CCCCN)NC(=O)[C@H](C)NC(=O)[C@H](C)NC(=O)[C@H](CCC(N)=O)NC(=O)[C@H](CCC(=O)O)NC(=O)[C@H](CC(=O)O)NC(=O)[C@H](CC(C)C)NC(=O)[C@H](Cc1ccc(O)cc1)NC(=O)[C@H](CCCCN)NC(=O)[C@H](CO)NC(=O)[C@H](Cc1ccc(O)cc1)NC(=O)[C@H](CC(=O)O)NC(=O)[C@H](CO)NC(=O)[C@@H](NC(=O)[C@H](Cc1ccccc1)NC(=O)[C@@H](NC(=O)CNC(=O)[C@H](CCC(N)=O)NC(=O)C(C)(C)NC(=O)[C@@H](N)Cc1c[nH]cn1)[C@@H](C)O)[C@@H](C)O)C(=O)N[C@@H](CS)C(=O)N[C@@H](Cc1c[nH]c2ccccc12)C(=O)N[C@@H](CC(C)C)C(=O)N[C@@H](CCSC)C(=O)N[C@@H](CC(N)=O)C(=O)NCC(=O)NCC(=O)N1CCC[C@H]1C(=O)N[C@@H](CO)C(=O)N[C@@H](CO)C(=O)NCC(=O)N[C@@H](C)C(=O)N1CCC[C@H]1C(=O)N1CCC[C@H]1C(=O)N1CCC[C@H]1C(=O)N[C@@H](CO)C(N)=O
B14: Chimera AIB2, Gly29,30 Cys24 Cex Lactam (SEQ ID NO: 491), parent w/PEG (peptide)
peptide: H[Aib]QGTFTSDYSKYLDEQAAKEFIC(PEG)WLMNGGPSSGAPPPS-NH2
modifications: lactam 16-20; reading uncertain

target: glucagon receptor (UniProt P47871 26-477, limits assumed); assay: cell-based or functional assay
Sequence (P47871 26-477 limits assumed): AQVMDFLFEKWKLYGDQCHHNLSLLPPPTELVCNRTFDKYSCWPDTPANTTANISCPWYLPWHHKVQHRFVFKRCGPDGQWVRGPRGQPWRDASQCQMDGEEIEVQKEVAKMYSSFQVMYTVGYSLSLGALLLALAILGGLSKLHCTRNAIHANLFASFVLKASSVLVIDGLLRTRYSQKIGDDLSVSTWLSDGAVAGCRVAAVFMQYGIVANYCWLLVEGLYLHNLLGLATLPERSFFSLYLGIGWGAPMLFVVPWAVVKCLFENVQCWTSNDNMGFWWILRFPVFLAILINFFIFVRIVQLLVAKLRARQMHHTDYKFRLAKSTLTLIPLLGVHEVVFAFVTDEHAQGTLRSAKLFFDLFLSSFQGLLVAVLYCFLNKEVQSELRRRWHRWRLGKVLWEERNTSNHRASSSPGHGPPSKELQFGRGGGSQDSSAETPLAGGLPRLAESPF

Binder | % Potency Relative to Native [%]
B1 | 5.6
B2 | 0.3
B3 | 25.2
B4 | 0.1
B5 | 161
B6 | 19.1
B7 | 3.2
B8 | 1.1
B9 | 20.1
B10 | 0.2
B11 | 14.2
B12 | 2.2
B13 | 2.5
B14 | 1.4

target: GLP-1 receptor (UniProt P43220 24-463, limits assumed); assay: cell-based or functional assay

Binder | % Potency Relative to Native [%]
B1 | 54.3
B2 | 68.8
B3 | 382
B4 | 88.5
B5 | 82.5
B6 | 12.5
B7 | 63.6
B8 | 73.5
B9 | 125
B10 | 95.4
B11 | 170
B12 | 359
B13 | 458
B14 | 96.4

From patent publication US20120172295A1 (INDIANA UNIVERSITY RESEARCH AND TECHNOLOGY, published 2012)
